Measured values taken from the DeepSol protein solubility set.

Assay: soluble on expression in E. coli; label from the status in PepcDB or PDB records
For “MANKNYQMSTGVTAVVQKVVEACQDESKRLDLIEIARSYPPNQLRNMQRTFQAITGTFLDAFLKKHLSKDFESLVLMLYKPRAQLLCELIRGATKGAGTDEKCLVDVLLTIETHEVREIRQLYYQLYNDSLGDVVRKDCGDKYMWAKLINAVATGDRIPRDTHELEEDLVLVRKAIETKGVKKDEVSTWIRIFATYTRADFRQLHKMYSAKYNGDSLRAGVEDEFQGLDEYAFKLAHDFLYDPCCAAAFSMNVAFAGSGSDSNRLNRITAMHFRECKGCKYYYKKVYGQAFDERCATELKGVYGDAIKLLWEPVTVPLLSMDDYQGSEQHRPMTLEL”, the “soluble on expression in E. coli” value was “soluble”.
For “MGSDKIHHHHHHMIAQVEPFHAIAISRLAHDLEAAGQSVIHMEFGQPSTGAPAEAIALAHEVLDNEAMGYWESVPLKERIARSYAENHGVKVEREQVILTCGASPAFVMALSCLFRPGARIALARPGYVAYRNSLKAMYLEPVEMECGPAERFQVTAAAVDALDPVPDGLIVASPANPTGTIIEPGELAAIAEVCCRKGIRVISDEIYHGLSYGKAAASMLEYLPDAVIVNSFSKYFSMAGWRLGWLVVPPSLIDAARARMGSLFLTPPVLAQKAGLKAFDCRAELDGHVETYARNRAILLEALPQMGLGRIAPPDGAFYIYADASEFTDDSLALCEALLRDTGVATAPGLDFDPVNGKRFIRFSFAVSTPLIEEAVRRIGPWFAARRAVSPAQAPS”, the “soluble on expression in E. coli” value was “not soluble”.
For “MNELTKQMQQIMHPRAVLVAYECETTGYSTPRSYLELRPVNEKGRMGAGIPVTYEFMNSLVESYTESMSGIPHGRIPGNMLLCDSRKGRERYIWYNPPQKRKMYFQDGLHITDGTFNVPGVIYVVERECMDIHAFKGAIPEERTELYLAPFFNVAGANVCLGSSSPKKPQDMDFLEFQEYWEKRFWMSEFSHLGGNRNPTRSNLVSVTEHARNNPFDYSELQQSGKKLKDILA”, the “soluble on expression in E. coli” value was “not soluble”.
For “MGSDKIHHHHHHMLSALWVSKTGLSAQDMNLTTISNNLANVSTTGFKRDRAEFQDLLYQIRRQPGGQSTQDSELPSGLQLGTGVRVVGTQKIFTPGSLQTTEQPLDMAVNGRGFFQVLLPDGTVSYTRDGSFHLNSDGQIVTSNGFALEPAIVVPNETQTFTVGQDGTVSVTTTGNAQPQVIGNIQTADFINPAGLQAIGNNLFLETGSSGAPQVGTPGLNGLGTVAQNTLENSNVNVVEELVNMITTQRAYEMNSKVISTADQMLSFVTQNL”, the “soluble on expression in E. coli” value was “not soluble”.
With “STERRRDELSEEINNLREKVMKQSEENNNLQSQVQKLTEENTTLREQVEPTPEDEDDDIELRGAAAAAAPPPPIEEECPEDLPEKFDGNPDMLAPFMAQCQIFMEKSTRDFSVDRVRVCFVTSMMTGRAARWASAKLERSHYLMHNYPAFMMEMKHVFEDPQRREVAKRKIRRLRQGMGSVIDYSNAFQMIAQDLDWNEPALIDQYHEGLSDHIQEELSHLEVAKSLSALIGQCIHIERRLARAAAARKPRSPPRALVLPHIASHHQVDPTEPVGGARMRLTQEEKERRRKLNLCLYCGTGGHYADNCPAKASKSSPAGNSPAPL” the “soluble on expression in E. coli” value was “soluble”.
With “MSVKVAFIRHHNLWIKVDGKEIQITKGEYITGPKWSYDGEWLAYVKGKKQSILELYRLKDGKKVTPFHSEASNYQWSPTENIIAFIFTGTLNTFDVEKKNADFENVSAGVGDYAWYPDGKNFLVSSEAHLLPTGWTGAQLYEVQKDAHMNPHKMKHLYALPNEHDDFLALVASGFKWSPDQKWISFLAVPTASWSADSNTLCLVRADGSRFEKVDQMLLNAQWFQWAPSKNILAYIEGSGRVALENKHLKVKELPALQQNIFTPKGYVDWDFVWKNDRVIIVSRAKEAGIETPPEKRPLPSLYEVDSTSNAQHQITKKTNKQGDYHPIFMKKSNQLIWIRSDRKKADVWLAHKDRKQEKKWIENIDVPAWYYEKWNWGNVISVKEELEHHHHHH” the “soluble on expression in E. coli” value was “soluble”.
For “MKTAIVYYSQHHGNTKKLLDAIAIVDDVTLIDVTKHTAYDLNEFNLIGFASGIYFQKFSKKVLDFAKNNLPFNKKVFFIYTCGIKFPSYTVAIRAVVKEKNADIVGEYGCPGFDTFGPFKIVGGIRKGRPNENDIAKAVQFFRGILKLEHHHHHH”, the “soluble on expression in E. coli” value was “soluble”.
For “MARLEVPRPATFVTLTGFMGVGKSRIGRELARALMLHFIDLDRYIERRTGISIPDIFRHLGEEAFRRMEKEAVRELVGKDYLVLSLGGGTFMDPESQKALLGRGPVVALWASPETILERAMRKPGERPLLQVENPLERIRTLLEARAPVYRKAHIHVSTDGRRVEEVVEEIVEKLWRHAEARGA”, the “soluble on expression in E. coli” value was “soluble”.
With “MSLEPDELFDIEMRLLLHGVRQVYGHDFTDYSEASIKRRITQWFATSGYGTLSEAQAAILRNREAFDSLLRGITVNVSEMFRDPAFFRALREEIVPHLKTYPFVKIWHAGCSSGEEAYSLAILLEEEGMKGRFRMYATDINNEVLQNAREGIFPLKEMQKYTRNYQAAGGKGAFSDYYLARYEHAIMIQSLRDQIVFASHNLAVDADFGEMHLILCRNVLIYFKPTLKERVLRLFDTCLIPGGFLCLGLKESLDGRRIASRYAETVERMRIYRKSYGQEQSEGHHHHHH” the “soluble on expression in E. coli” value was “not soluble”.
For “AEIKAVSAARLLDVASGKYVDNPLVIVTDGRITSIGKKGDAVPAGATAVDLPGVTLLPGLIDMHVHLDSLAEVGGYNSLEYSDRFWSVVQTANAKKTLEAGFTTVRNVGAADYDDVGLREAIDAGYVPGPRIVTAAISFGATGGHCDSTFFPPSMDQKNPFNSDSPDEARKAVRTLKKYGAQVIKICATGGVFSRGNEPGQQQLTYEEMKAVVDEAHMAGIKVAAHAHGASGIREAVRAGVDTIEHASLVDDEGIKLAVQKGAYFSMDIYNTDYTQAEGKKNGVLEDNLRKDRDIGELQRENFRKALKAGVKMVYGTDAGIYPHGDNAKQFAVMVRYGATPLQAIQSATLTAAEALGRSKDVGQVAVGRYGDMIAVAGDPLADVTTLEKPVFVMKGGAVVKAP”, the “soluble on expression in E. coli” value was “soluble”.
In the case of “MATAVKLSGISKTFGSLKANDNVSLSIEAGSIHALVGENGAGKSTLSNIIYGLLHPDSGTIEIDGKAVKFSSVRQAIEAGIGMVHQHFMLVPTLSVTENIILGKEESRLALPTRRIGKEIRQLSQQHGLEVDPDALVSTLSVGEQQRVEILKLLYRRAKLLILDEPTAVLSPPETARLFATLRSLAAEGRTVLLITHKLDEVLTVSDSVSVMRKGSLVGTVPTTSTSKEDLARMMVGRDVLLRTANAPQTPGKTVLSIDKLTYRSPLGIDKLTGLTLHVRAGEIYGIAGVEGNGQSELLSLLWGTFDRSGKTGGSITIDAQETLGKNPSEIAALGVSMIPEDRHKSAIIAEYGIEENLILGRHREKAFHRGIGFDRDAVHKNATAMIEQYDIRCAAGTNPPIASLSGGNQQKIVVAREMERPQLKLLVLAQPTRGVDIGAIEQIHKRIIDARKSGLAILLISSELEEIVALSTRIGCLYKGAIRHEFSETEVWRGRDHESGFEKEIGMHITLEHHHHHH”, the “soluble on expression in E. coli” value was “soluble”.
With “MGVPIGDLVPRKEIDLENLYGKKIAIDALNAIYQFLSTIRQEDGTPLMDSKGRITSHLSGLFYRTINLMEAGIKPAYVFDGKPPEFKRKELEKRREAREEAELKWKEALAKGNLEEARKYAQRATKVNEMLIEDAKKLLQLMGIPIIQAPSEGEAQAAYMASKGDVYASASQDYDSLLFGAPRLIRNLTITGKRKMPGKDVYVEIKPELVVLDEVLKELKITREKLIELAILVGTDYNPGGVKGIGPKKALEIVRYSRDPLAKFQRQSDVDLYAIKEFFLNPPVTNEYSLSWKEPDEEGILKFLCDEHNFSEERVKNGIERLKKAIKAGRQSTLESWFVKKKP” the “soluble on expression in E. coli” value was “soluble”.
For “MKKYTLIATAPMGIEAVVAKEVRDLGYECKVDNGKVIFEGDALAICRANLWLRTADRIKVQVASFKAKTFDELFEKTKAINWRSFIPENGKFPVIGKSVKSTLASVPDCQRIVKKAIVEKLKLQSGKANDWIEETGAEYKVEISLLKDQALITLDSSGTGLHKRGYRVDQGGAPIKETLAAALVQLTNWTPDRPFVDPFCGSGTIAIEAALIGQNIAPGFNRDFVSEDWEWIGKDLWNKARLEVEEKANYDQPLTIFASDIDHRMVQIAKENAEEAGLGDLIQFKQMQVKDFTTNLEFGVIVGNPPYGERLGEKKAVEQMYKEMGQAFEPLDTWSVYMLTSNENFEEAYGRKATKKRKLFNGFIKTDYYQYWSKVRPQRKKTENA”, the “soluble on expression in E. coli” value was “not soluble”.
For “GHHHHHHAIAENLYFQSHGHGGYDSDFSDDEHCGESSKRKKRTVEDDLLLQKPFQKEKHGKVAHKQVAAELLDREEARNRRFHLIAMDAYQRHRKFVNDYILYYGGKKEDFKRLGENDKTDLDVIRENHRFLWNEEDEMDMTWEKRLAKKYYDKLFKEYCIADLSKYKENKFGFRWRVEKEVISGKGQFFCGNKYCDKKEGLKSWEVNFGYIEHGEKRNALVKLRLCQECSIKLNFHHRRKEIKSKKRKDKTKKDCEESSHKKSRLSSAEEASKKKDKGHSSSKKSEDSLLRNSDEEESASESELWKGPLPETDEKSQEEEFDEYFQDLFL”, the “soluble on expression in E. coli” value was “soluble”.
In the case of “MDHSPWQRCLSVLQEELPAQQFSMWIRPLQCVINDNVMTLYAPNRFVLDWVRDKYVNRINELLTINESNNPLLLRFDVGSKPTIDNSVTNSPVSRNTGGNESLFAKATSAPKVAEPESNIPKKTNVRLNYTFENFVEGKSNQLARAAASQVADNPGTAYNPLFIYGGTGLGKTHLLHAVGNGILLNKPNAKIAYMHSERFVQDMVRALQNNAMEKFKQYYRSVDALLIDDIQFFAGKERTQEEFFHTFNALLEGNQQVILTSDRYPKEINGVDDRLKSRFGWGLTLAIEPPELETRVAILKRKAQESQINLADEVAFFIAKRLRSNVRELEGALNRVIANANFTGRAITIDFVREALRDLLALQDKLVTIDNIQRTVAEYYKIKIADLLSKRRNRSVARPRQIAMALSKELTNHSLPEIGDAFGGRDHTTVLHACRKVKSLREETHDIKEDYSNLIRTLSSLEHHHHHH”, the “soluble on expression in E. coli” value was “not soluble”.
With “MSFNPDYESVAKAFIQHYYSKFDVGDGMSRAQGLSDLYDPENSYMTFEGQQAKGRDGILQKFTTLGFTKIQRAITVIDSQPLYDGSIQVMVLGQLKTDEDPINPFSQVFILRPNNQGSYFIGNEIFRLDLHNN” the “soluble on expression in E. coli” value was “not soluble”.
In the case of “MAMNYLEAFPKELREYYKNLFGKEEANKIMKKLREPVEHYYIRVNTLKISREKLIGELKKEGLKPLRSPYLPEGLYFVREGPNFSDDFEPKLPVVVANKYAAESVYQGAMLYAPGVLKADKNIKEGDEVQIRDPKGLLVGIGIARMDYKEMTEATRGLAVEVTLPKFKLPSLSELKAFEKGYFYPQGLPSMVTARVLEPKEDDVIIDMAAAPGGKTTHIAQLLENKGEIIAIDKSKNRLRKMEENIKRLGVKNVKLVQMDARKLPDLGIKADKILLDAPCTALGVRPKLWEERTLKHIEATARYQRAFIWAAIKSLRRGGVLVYSTCTLSYEENEGNVKFMIRKGMKLEEQSIFIGSPGIGMNKVQRFYPHKHLTQGFFIAKLRKVKDI”, the “soluble on expression in E. coli” value was “soluble”.
With “MQLNATFYSGTCPNASAIVRSTIQQALQSDTRIGASLIRLHFHDCFVNGCDASILLDDTGSIQSEKNAGPNVNSARGFNVVDNIKTALENACPGVVSCSDVLALASEASVSLAGGPSWTVLLGRRDSLTANLAGANSSIPSPIESLSNITFKFSAVGLNTNDLVALSGAHTFGRARCGVFNNRLFNFSGTGNPDPTLNSTLLSTLQQLCPQNGSASTITNLDLSTPDAFDNNYFANLQSNDGLLQSDQELFSTTGSSTIAIVTSFASNQTLFFQAFAQSMINMGNISPLTGSNGEIRLDCKKVNGS” the “soluble on expression in E. coli” value was “soluble”.
For “VAVGDVDAPVGLVVFSDYQCPFCAKWSDETLPQMMKHVEDGNLRIEWREVNIFGEPSERGARAAYAAGLQDAYLEYHNALFANGEKPSEDLLSEEGLIKLAGDLGLDESKFTADFQSPETAVAIAQHQQLGIDLGAYSTPAFLLGGQPIMGAQPASVFEAAFEQALAAKE”, the “soluble on expression in E. coli” value was “not soluble”.
For “MSKSYNQRQRKKLHLAEFQELGFLVNFQFAEGTAIETVDETVDRFINEVIQPNGLAYEGSGYLHWEGLVCLEKIGKCDESHRETVKKWLETNGLQQIEVSELFDIWW”, the “soluble on expression in E. coli” value was “not soluble”.
